Article PMC7065722 (Biochemistry, 2019)

These compounds were tested on O=C(O)C[C@H](O)C(=O)O (assay: crystal structure). Details: [4Fe-4S] cluster active site, same binding mode as wild type.
Type: biochemical, Leishmania major
LmFH-2-T467A (Leishmania major; T467A) showed a Km of 4.4 ± 0.2 mM, a Vmax of 0.047 µmol/min/mg and a kcat of 0.052 ± 0.001 s⁻¹. For the same compound, the kcat/Km was 12 ± 1 M⁻¹ s⁻¹. Compound LmFH-2-R471A (Leishmania major; R471A) has a Km of 4.3 ± 0.2 mM, a Vmax of 0.034 µmol/min/mg and a kcat of 0.038 ± 0.001 s⁻¹. For the same compound, the kcat/Km was 9 ± 1 M⁻¹ s⁻¹. Work on LmFH-2-H334A (Leishmania major; H334A) yielded a Km of 4.6 ± 0.1 mM, a Vmax of 52 µmol/min/mg and a kcat of 57.6 ± 0.4 s⁻¹. It also gave a kcat/Km of 12500 ± 400 M⁻¹ s⁻¹. For LmFH-2-R421A (Leishmania major; R421A), the Km was 4.1 ± 0.3 mM, the Vmax was 0.13 µmol/min/mg and the kcat was 0.144 ± 0.002 s⁻¹. For the same compound, the kcat/Km was 35 ± 3 M⁻¹ s⁻¹.

The compounds below were run against T1, LmFH-2 (cytosolic class I fumarate hydratase) (Leishmania major, UniProt E9AE57) (assay: crystal structure at […] Å). Details: not given.
T1 sequence (E9AE57 1-568): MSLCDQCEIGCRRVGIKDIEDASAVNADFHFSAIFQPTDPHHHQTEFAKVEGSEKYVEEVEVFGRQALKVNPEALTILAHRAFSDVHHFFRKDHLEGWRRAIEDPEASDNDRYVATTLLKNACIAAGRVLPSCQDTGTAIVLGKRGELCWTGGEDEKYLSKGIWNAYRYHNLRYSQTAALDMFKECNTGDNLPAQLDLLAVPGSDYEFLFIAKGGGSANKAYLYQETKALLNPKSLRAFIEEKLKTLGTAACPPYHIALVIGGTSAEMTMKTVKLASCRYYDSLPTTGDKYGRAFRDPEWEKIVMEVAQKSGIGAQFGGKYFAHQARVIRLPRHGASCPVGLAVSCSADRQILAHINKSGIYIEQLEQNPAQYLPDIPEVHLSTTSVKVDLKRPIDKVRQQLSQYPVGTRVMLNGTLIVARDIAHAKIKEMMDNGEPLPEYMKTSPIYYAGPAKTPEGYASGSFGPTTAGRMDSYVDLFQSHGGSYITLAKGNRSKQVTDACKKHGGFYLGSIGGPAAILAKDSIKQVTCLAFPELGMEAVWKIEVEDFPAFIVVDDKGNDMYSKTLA
Type: biochemical
Work on `O=C(O)CCC(=O)O` [succinate] yielded an IC50 of 34.2 ± 1.2 mM.

What follows are compounds tested against T2, LmFH-2-R173A (Leishmania major, UniProt E9AE57, R173A) (assay: not given). Details: not given.
T2 sequence (E9AE57 1-568 R173A): T1 sequence (E9AE57 1-568)
`O=C(O)/C=C/C(=O)O` [fumarate] gave a Km of 2.6 ± 0.6 mM.
